Experimental data taken from the supplement of paper PMC10724198.
± gives the standard deviation of the averaged measurements.

Columns and labels:
Saccharomyces cerevisiae [1] = assay: protein stability index of tFT-peptide fusion (C-terminal peptide) (PSI (0-1 scale)); higher = more stable (slower turnover); details: genetic background: wild type; temperature: 30 C
Saccharomyces cerevisiae [2] = assay: as above
Description: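 MPS profiling in S. cerevisiae of the tFT-X12 degron library: putative degron peptides plus stable controls, 12 aa, fused to the C-terminus of a sfGFP-mCherry timer. Cells are FACS-sorted into 8 mCherry/sfGFP bins and deep-sequenced. PSI runs from 0 (unstable) to 1 (stable). Backgrounds are wild type, das1Δ and doa10Δ at 30 °C, and wild type, das1Δ, cdc34-1 and cdc53-1 at 37 °C; 2-3 technical replicates each.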

[3] = genetic background: cdc34-1, temperature: 37 C
[4] = genetic background: cdc53-1, temperature: 37 C
[5] = genetic background: das1 deletion, temperature: 30 C
[6] = genetic background: das1 deletion, temperature: 37 C
[7] = genetic background: doa10 deletion, temperature: 30 C
[8] = genetic background: wild type, temperature: 30 C
[9] = genetic background: wild type, temperature: 37 C
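Note: PSI is a weighted mean of sequencing reads over stability bins, variants kept only with over 10 reads, mCherry proximal and sfGFP distal, peptide attached via GGGS linker.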

| Sequence | protein stability index (Saccharomyces cerevisiae [1]) | protein stability index (Saccharomyces cerevisiae [2]; [3]) | protein stability index (Saccharomyces cerevisiae [2]; [4]) | protein stability index (Saccharomyces cerevisiae [2]; [5]) | protein stability index (Saccharomyces cerevisiae [2]; [6]) | protein stability index (Saccharomyces cerevisiae [2]; [7]) | protein stability index (Saccharomyces cerevisiae [2]; [8]) | protein stability index (Saccharomyces cerevisiae [2]; [9]) |
| --- | --- | --- | --- | --- | --- | --- | --- | --- |
| LVDSRIVWLFVS | 0.0955 ± 0.039 | 0.325 ± 0.095 | 0.584 ± 0.034 | 0.439 ± 0.026 | 0.632 ± 0.024 | 0.0761 ± 0.016 | 0.0713 ± 0.017 | 0.0698 ± 0.021 |
| LVFFAYLIRGAL | 0.108 ± 0.036 | 0.344 ± 0.0086 | 0.462 ± 0.011 | 0.364 ± 0.031 | 0.518 ± 0.015 | 0.0526 ± 0.0068 | 0.0682 ± 0.0051 | 0.0558 ± 0.0015 |
| LVGLESCGERAG | 0.69 ± 0.035 | 0.655 ± 0.00071 | 0.7436 ± 0.0018 | 0.644 ± 0.025 | 0.7308 ± 0.0011 | 0.643 ± 0.027 | 0.654 ± 0.0009 | 0.72 ± 0.024 |
| LVHLVLYVAVFC | 0.283 ± 0.074 | 0.317 ± 0.043 | 0.4112 ± 0.0015 | 0.292 ± 0.048 | 0.409 ± 0.0046 | 0.2877 ± 0.0014 | 0.309 ± 0.013 | 0.398 ± 0.0049 |
| LVLLRLSSLTIF | 0.404 ± 0.0068 | 0.627 ± 0.01 | 0.699 ± 0.0095 | 0.561 ± 0.018 | 0.707 ± 0.012 | 0.269 ± 0.011 | 0.314 ± 0.011 | 0.549 ± 0.034 |
| LVVFLRFFLRVL | 0.199 ± 0.0035 | 0.105 ± 0.0097 | 0.106 ± 0.002 | 0.166 ± 0.028 | 0.265 ± 0.039 | 0.175 ± 0.003 | 0.114 ± 0.033 | 0.158 ± 0.016 |
| LVVGCFLTFCFG | 0.315 ± 0.028 | 0.241 ± 0.013 | 0.366 ± 0.012 | 0.26 ± 0.028 | 0.441 ± 0.0089 | 0.212 ± 0.0024 | 0.236 ± 0.038 | 0.402 ± 0.0085 |
| LWFGAWWLGAVG | 0.457 ± 0.0053 | 0.318 ± 0.031 | 0.361 ± 0.0043 | 0.411 ± 0.0063 | 0.336 ± 0.0087 | 0.4166 ± 0.0011 | 0.421 ± 0.0065 | 0.32 ± 0.013 |
| LWGVGRQRNIAS | 0.41 ± 0.013 | 0.684 ± 0.033 | 0.758 ± 0.015 | 0.655 ± 0.038 | 0.769 ± 0.021 | 0.291 ± 0.036 | 0.304 ± 0.018 | 0.582 ± 0.021 |
| LWRRSLLLLRCC | 0.0946 ± 0.013 | 0.0526 ± 0.0063 | 0.0759 ± 0.04 | 0.173 ± 0.029 | 0.244 ± 0.015 | 0.0637 ± 0.013 | 0.0611 ± 0.0038 | 0.0618 ± 0.0063 |
| LWYVQILNIVLN | 0.328 ± 0.033 | 0.31 ± 0.018 | 0.388 ± 0.019 | 0.293 ± 0.048 | 0.4552 ± 0.0029 | 0.233 ± 0.024 | 0.249 ± 0.029 | 0.409 ± 0.013 |
| LYLEAYFCIFHF | 0.36 ± 0.024 | 0.356 ± 0.052 | 0.449 ± 0.0069 | 0.358 ± 0.025 | 0.422 ± 0.013 | 0.334 ± 0.017 | 0.327 ± 0.004 | 0.401 ± 0.015 |
| MALAVRVVVCGA | 0.184 ± 0.043 | 0.0333 ± 0.0083 | 0.0649 ± 0.022 | 0.125 ± 0.025 | 0.131 ± 0.0024 | 0.0868 ± 0.014 | 0.107 ± 0.02 | 0.107 ± 0.021 |
| MAMMQTILIIIH | 0.171 ± 0.0028 | 0.0295 ± 0.01 | 0.158 ± 0.14 | 0.117 ± 0.044 | 0.186 ± 0.014 | 0.0894 ± 0.029 | 0.119 ± 0.026 | 0.173 ± 0.0081 |
| MDLVSEYKIKVN | 0.31 ± 0.004 | 0.62 ± 0.026 | 0.712 ± 0.053 | 0.56 ± 0.034 | 0.704 ± 0.02 | 0.176 ± 0.006 | 0.226 ± 0.038 | 0.473 ± 0.0088 |
| MFRSEVSWKLCC | 0.285 ± 0.054 | 0.619 ± 0.071 | 0.727 ± 0.015 | 0.624 ± 0.019 | 0.753 ± 0.011 | 0.1344 ± 0.00047 | 0.174 ± 0.025 | 0.409 ± 0.025 |
| MSCILFCCLVPF | 0.4748 ± 0.0035 | 0.545 ± 0.039 | 0.57 ± 0.034 | 0.423 ± 0.023 | 0.568 ± 0.014 | 0.381 ± 0.012 | 0.402 ± 0.029 | 0.549 ± 0.017 |
| NASWAFLCYFCV | 0.481 ± 0.028 | 0.646 ± 0.03 | 0.69 ± 0.013 | 0.538 ± 0.018 | 0.68493 ± 0.0006 | 0.347 ± 0.018 | 0.374 ± 0.022 | 0.557 ± 0.04 |
| NMRYRATIEACA | 0.356 ± 0.0097 | 0.258 ± 0.043 | 0.319 ± 0.0071 | 0.222 ± 0.029 | 0.397 ± 0.005 | 0.174 ± 0.021 | 0.226 ± 0.029 | 0.38 ± 0.023 |
| NTYKICVVSVTS | 0.413 ± 0.018 | 0.449 ± 0.014 | 0.552 ± 0.021 | 0.355 ± 0.047 | 0.587 ± 0.0069 | 0.267 ± 0.019 | 0.299 ± 0.035 | 0.578 ± 0.018 |
